Laboratory results reported in patent US20240034757A1 (OXFORD UNIVERSITY INNOVATION, published 2024).
Read-outs that look alike come from different tables or passages of the source.

Tests used:
[1] = molecular target: T1, P467_RHIPU (Rhipicephalus pulchellus, UniProt L7M8Z8 22-127); assay: BLI
T1 sequence: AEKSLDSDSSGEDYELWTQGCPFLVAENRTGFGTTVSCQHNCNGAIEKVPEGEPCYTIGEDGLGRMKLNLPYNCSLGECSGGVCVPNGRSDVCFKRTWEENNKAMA

[2] = molecular target: T2, P1243_AMBAM (Amblyomma americanum, UniProt A0A0C9S461 26-123); assay: BLI
T2 sequence: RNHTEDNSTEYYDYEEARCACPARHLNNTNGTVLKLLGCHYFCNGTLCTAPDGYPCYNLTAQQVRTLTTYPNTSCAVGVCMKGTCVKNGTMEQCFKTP

[3] = molecular target: T3, P672_RHIPU (Rhipicephalus pulchellus, UniProt L7MC74 22-125); assay: BLI
T3 sequence: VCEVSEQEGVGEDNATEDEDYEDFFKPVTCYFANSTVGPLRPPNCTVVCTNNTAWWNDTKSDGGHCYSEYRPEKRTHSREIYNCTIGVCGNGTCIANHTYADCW

[4] = molecular target: T4, P985_AMBPA (Amblyomma parvum, UniProt A0A023FT45 25-132); assay: BLI
T4 sequence: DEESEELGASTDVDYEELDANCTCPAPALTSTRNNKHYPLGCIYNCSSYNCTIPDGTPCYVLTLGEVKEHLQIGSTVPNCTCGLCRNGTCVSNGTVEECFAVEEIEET

[5] = molecular target: T5, P991_AMBCA (Amblyomma cajennense, UniProt A0A023FFD0 29-136); assay: BLI
T5 sequence: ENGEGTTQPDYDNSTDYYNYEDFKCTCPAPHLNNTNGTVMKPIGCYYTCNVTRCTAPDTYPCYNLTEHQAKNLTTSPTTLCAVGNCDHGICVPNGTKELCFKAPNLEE

[6] = molecular target: T2, P1243_AMBAM; assay: BLI; remark: listed apart in the source
[7] = molecular target: T6, P546_AMBCA (Amblyomma cajennense, UniProt A0A023FBW7 22-118); assay: BLI
T6 sequence: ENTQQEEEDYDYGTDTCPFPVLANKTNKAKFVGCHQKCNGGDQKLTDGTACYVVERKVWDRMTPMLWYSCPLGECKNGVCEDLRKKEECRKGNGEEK

[8] = molecular target: T7, P1180_AMBTR (Amblyomma triste, UniProt A0A023G6B6 26-116); assay: BLI
T7 sequence: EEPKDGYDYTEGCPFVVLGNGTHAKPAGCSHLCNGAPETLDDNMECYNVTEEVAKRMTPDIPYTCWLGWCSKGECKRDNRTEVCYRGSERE

[9] = molecular target: T8, P1181_AMBMA (Amblyomma maculatum, UniProt G3MIX6 26-115); assay: BLI
T8 sequence: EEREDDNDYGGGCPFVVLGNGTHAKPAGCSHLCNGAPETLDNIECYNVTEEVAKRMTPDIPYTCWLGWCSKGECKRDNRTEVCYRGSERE

[10] = molecular target: T9, P1182_AMBMA (Amblyomma maculatum, UniProt G3MJ83 27-115); assay: BLI
T9 sequence: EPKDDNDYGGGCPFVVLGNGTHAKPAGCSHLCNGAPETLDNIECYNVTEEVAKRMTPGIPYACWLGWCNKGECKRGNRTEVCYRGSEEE

[11] = molecular target: T10, P1183_AMBTR (Amblyomma triste, UniProt A0A023G9N9 26-115); assay: BLI
T10 sequence: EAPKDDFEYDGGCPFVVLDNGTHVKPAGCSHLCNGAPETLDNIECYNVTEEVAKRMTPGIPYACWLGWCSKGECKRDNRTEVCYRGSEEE

[12] = molecular target: T11, P974_AMBCA (Amblyomma cajennense, UniProt A0A023FDY8 22-118); assay: BLI
T11 sequence: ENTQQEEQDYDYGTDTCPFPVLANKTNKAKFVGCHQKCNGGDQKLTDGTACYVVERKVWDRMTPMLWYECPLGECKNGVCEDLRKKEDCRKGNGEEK

[13] = molecular target: T12, P983_AMBCA (Amblyomma cajennense, UniProt A0A023FFB5 22-119); assay: BLI
T12 sequence: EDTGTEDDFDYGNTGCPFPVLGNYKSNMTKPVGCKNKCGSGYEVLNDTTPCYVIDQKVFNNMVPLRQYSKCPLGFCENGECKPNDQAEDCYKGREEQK

[14] = molecular target: T13, CXCL9_HUMAN (human, UniProt Q07325 23-125); assay: BLI
T13 sequence: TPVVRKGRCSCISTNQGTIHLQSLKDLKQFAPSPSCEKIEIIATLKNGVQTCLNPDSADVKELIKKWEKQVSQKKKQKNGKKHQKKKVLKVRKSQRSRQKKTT

[15] = molecular target: T14, CXCL10_HUMAN (human, UniProt P02778 22-98); assay: BLI
T14 sequence: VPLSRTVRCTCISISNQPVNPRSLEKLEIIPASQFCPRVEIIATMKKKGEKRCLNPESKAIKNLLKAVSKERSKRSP

[16] = molecular target: CXCL12_HUMAN (human, UniProt P48061 22-89); assay: BLI
Chain of CXCL12_HUMAN (P48061 22-89 limits assumed): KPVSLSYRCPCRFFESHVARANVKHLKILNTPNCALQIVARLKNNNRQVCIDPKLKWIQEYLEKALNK

[17] = molecular target: T15, CXCL13_HUMAN (human, UniProt O43927 23-109); assay: BLI
T15 sequence: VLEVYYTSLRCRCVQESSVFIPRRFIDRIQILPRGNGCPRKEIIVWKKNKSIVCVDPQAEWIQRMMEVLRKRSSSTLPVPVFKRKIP

[18] = molecular target: T16, CXCL14_HUMAN (human, UniProt O95715 35-111); assay: BLI
T16 sequence: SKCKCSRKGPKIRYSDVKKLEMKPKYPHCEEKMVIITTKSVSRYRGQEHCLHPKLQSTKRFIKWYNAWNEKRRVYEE

[19] = molecular target: T17, CXCL6_HUMAN (human, UniProt P80162 38-114); assay: BLI [Cont.]
T17 sequence: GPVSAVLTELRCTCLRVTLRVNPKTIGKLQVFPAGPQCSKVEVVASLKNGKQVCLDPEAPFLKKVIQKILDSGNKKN

[20] = molecular target: T18, CXCL1_HUMAN (human, UniProt P09341 35-107); assay: yeast surface display FACS re-test; note: test concentration or dose not given here
T18 sequence: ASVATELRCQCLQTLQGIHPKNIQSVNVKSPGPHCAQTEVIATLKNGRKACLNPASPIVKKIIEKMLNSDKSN

[21] = molecular target: T19, CXCL11_HUMAN (human, UniProt O14625 22-94); assay: BLI
T19 sequence: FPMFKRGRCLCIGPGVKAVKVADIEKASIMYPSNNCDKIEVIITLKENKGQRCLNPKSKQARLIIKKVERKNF

[22] = molecular target: T20, CXCL7_HUMAN (human, UniProt P02775 59-128); assay: BLI [Cont.]
T20 sequence: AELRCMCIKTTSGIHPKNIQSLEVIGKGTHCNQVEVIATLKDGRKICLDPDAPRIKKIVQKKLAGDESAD

[23] = molecular target: T21, CXCL8_HUMAN (human, UniProt P10145 28-99); assay: BLI [Cont.]
T21 sequence: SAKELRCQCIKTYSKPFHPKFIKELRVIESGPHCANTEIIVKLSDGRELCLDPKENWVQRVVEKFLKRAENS

[24] = molecular target: T22, CXCL4_HUMAN (human, UniProt P02776 32-101); assay: BLI [Cont.]
T22 sequence: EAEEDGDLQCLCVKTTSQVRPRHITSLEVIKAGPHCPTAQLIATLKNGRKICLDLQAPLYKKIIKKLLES

Binder	Kd [1] [nM]	Kd [2] [nM]	Kd [3] [nM]	Kd [4] [nM]	Kd [5] [nM]	Kd [6] [nM]	Kd [7] [nM]	Kd [8] [nM]	Kd [9] [nM]	Kd [10] [nM]	Kd [11] [nM]	Kd [12] [nM]	Kd [13] [nM]	binding result [14]	binding result [15]	binding result [16]	binding result [17]	binding result [18]	% cells over threshold fluorescence [20] [%]	also measured
CCL16_HUMAN (ligand) QPKVPEWVNTPSTCCLKYYEKVLPRRLVVGYRKALNCHLPAIIFVTKRNREVCTNPNDDWVQEYIKDPNLPLLPTRNLSTVKIITAKNGQPQLLNSQ	14.1	0.926	3.3	45	1.28	0.925														
CCL15_HUMAN (ligand) QFTNDAETELMMSKLPLENPVVLNSFHFAADCCTSYISQSIPCSLMKSYFETSSECSKPGVIFLTKKGRQVCAKPSGPGVQDCMKKLKPYSI		9.61	32		159	9.61														
CCL4L1_HUMAN (ligand) APMGSDPPTACCFSYTARKLPRNFVVDYYETSSLCSQPAVVFQTKRGKQVCADPSESWVQEYVYDLELN	4.72	35.4		21	0.827	35.4	8.9	20	35	92	48	23.2	2.9							
CCL4_HUMAN (ligand) APMGSDPPTACCFSYTARKLPRNFVVDYYETSSLCSQPAVVFQTKRSKQVCADPSESWVQEYVYDLELN	13.6	15.3		46	5.82	15.3	27	66	53	63	78	30.2	8							
CCL3_HUMAN (ligand) SLAADTPTACCFSYTSRQIPQNFIADYFETSSQCSKPGVIFLTKRSRQVCADPSEEWVQKYVSDLELSA	0.363	5.3	2.6	8.9	1.08	5.3	15	1.1	2.2	5.4		7.97	3.5							
P1229_IXORI (other) DDEFFTVDYCGMNCTLQQDGSWTPCTQKNAECKCYHESGSSVGLCLSTAYTDFNQFGDPNNSDLDAATPRHPDASSR														no binding (tested: 300 nM)	no binding (tested: 300 nM)	no binding (tested: 300 nM)	no binding (tested: 300 nM)	no binding (tested: 300 nM)	66	binding result [19]: no binding (tested: 300 nM)
P1104_IXORI (other) ESKEASASQGPGKSFKVEFCETNCTENNGVWSGCTGDCICVSVGDSKEGRCMDLGDKVIDTPVAQG														no binding (tested: 300 nM)	no binding (tested: 300 nM)			no binding (tested: 300 nM)	65	binding result [21]: no binding (tested: 300 nM); Kd [16]: 67.8 nM; Kd [17]: 220 nM; binding result [22]: no binding (tested: 300 nM); binding result [23]: no binding (tested: 300 nM); binding result [24]: no binding (tested: 300 nM)
P1162_IXORI (other) LNDEELFTVDYCGTNCTQQPNGSWTTCPGNCSCYHEDGKTDGFCLSTEYTDFTQFPNLTSEEMDAATPRPE														no binding (tested: 300 nM)	no binding (tested: 300 nM)	no binding (tested: 300 nM)	no binding (tested: 300 nM)	no binding (tested: 300 nM)	72	binding result [21]: no binding (tested: 300 nM); binding result [19]: no binding (tested: 300 nM)
CCL11_HUMAN (ligand) not shown	1.4	6.03		8	3.43		8.7	33	20	28	8.5	17	21							
P1077_IXORI (other) GSKQLIGPQSSTNSIKAEFCDTNCTAGTNGIWNGCSGDCFCTHVGNSTEGRCMKITGFDEYPTSEAEE														no binding (tested: 300 nM)	no binding (tested: 300 nM)	no binding (tested: 300 nM)	no binding (tested: 300 nM)	no binding (tested: 300 nM)	50	binding result [22]: no binding (tested: 300 nM); binding result [23]: no binding (tested: 300 nM); binding result [24]: no binding (tested: 300 nM)
